Assay results: US20050287148A1
Blank lines part the entries; values can stand above or below the molecule they belong to.

How the values were obtained:
the best Ab2 = test: unlabeled 14G2a competing with plate-bound 14G2a for 125I-labeled Ab2
[1] = biological target: monoclonal anti-GD2 antibody 14G2a; test: competition RIA, Ab2 mixed with 125I-14G2a, M21/P6 cell monolayer
[2] = biological target: monoclonal anti-GD2 antibody 14G2a; test: competition RIA, 5 µl Ab2 hybridoma culture supernatant, 125I-14G2a on GD2-positive M21/P6 cells
[3] = biological target: monoclonal anti-GD2 antibody 14G2a; test: competition assay, Ab2 against 14G2a binding to GD2-expressing M21/P6 cells

% inhibition (the best Ab2): > 90%
Molecule: monoclonal anti-GD2 antibody 14G2a

lowest amount that inhibits 14G2a binding to GD2 expressing cells [1]: 25 ng
% inhibition of binding of radiolabeled 14G2a to M21/P6 cells [2]: > 70%
% inhibition of binding of 14G2a to M21/P6 cells [3]: > 75%
B1: monoclonal anti-idiotype antibody 1A7 (antibody, V domains shown)
VH: QVQVKESGPFLVPPSQSLSITCTVSGFSLTTYGVSWIRQPPGKGLEWLGAIWGDGTTNYHSALISRLSISKDNSKSQVFLKLNSLQTDDTATYYCAKLGNYDALDYWGQGTSVTVSS
VL: DVFMTQTPLSLPVSLGDQASISCRSSQSIVHSNGNTYLEWYLQKPGQSPNLLIYFVSNRFSGVPDRFSGSGSGTDFTLKISRVEAEDLGVYYCFQGSHVPWTFGGGTKLEIKR
